# Reference: publication PMC9482650, “Quantitative fragmentomics allow affinity mapping of interactomes” (Nature Communications, 2022)
# T1: ARHGAP21, Q5T5U3
# T1 sequence (Q5T5U3 45-169, limits assumed, looked up): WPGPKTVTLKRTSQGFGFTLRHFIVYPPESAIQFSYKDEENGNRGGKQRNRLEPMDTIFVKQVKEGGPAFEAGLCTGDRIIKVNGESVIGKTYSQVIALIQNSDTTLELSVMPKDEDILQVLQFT
# T2: DFNB31_1, Q9P202
# T2 sequence (Q9P202 135-233, limits assumed, looked up): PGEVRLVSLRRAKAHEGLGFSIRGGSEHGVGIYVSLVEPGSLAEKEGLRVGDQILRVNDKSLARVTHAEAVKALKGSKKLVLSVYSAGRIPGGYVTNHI
# T3: DLG3_2, Q92796
# T3 sequence (Q92796 221-321, limits assumed, looked up): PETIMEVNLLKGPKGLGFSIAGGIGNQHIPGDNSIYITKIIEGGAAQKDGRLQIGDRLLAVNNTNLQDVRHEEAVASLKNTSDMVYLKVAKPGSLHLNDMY
# T4: DLG3_3, Q92796
# T4 sequence (Q92796 374-475, limits assumed, looked up): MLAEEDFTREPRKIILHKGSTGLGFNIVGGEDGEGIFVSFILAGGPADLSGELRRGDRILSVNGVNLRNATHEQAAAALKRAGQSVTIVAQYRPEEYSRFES
# T5: LRRC7, Q96NW7
# T5 sequence (Q96NW7 1440-1537, limits assumed, looked up): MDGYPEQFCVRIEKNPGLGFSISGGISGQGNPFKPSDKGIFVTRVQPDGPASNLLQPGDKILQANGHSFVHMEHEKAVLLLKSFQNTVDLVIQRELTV
# T6: MPP2, Q14168
# T6 sequence (Q14168 180-250, limits assumed, looked up): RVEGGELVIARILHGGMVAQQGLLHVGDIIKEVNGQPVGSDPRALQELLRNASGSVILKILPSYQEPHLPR
# T7: PTPN13_1, Q12923
# T7 sequence (Q12923 1088-1188, limits assumed, looked up): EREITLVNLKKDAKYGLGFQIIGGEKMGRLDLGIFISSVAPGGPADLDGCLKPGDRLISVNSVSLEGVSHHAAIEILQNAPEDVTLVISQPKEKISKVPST
# T8: SHANK1, Q9Y566
# T8 sequence (Q9Y566 658-767, limits assumed, looked up): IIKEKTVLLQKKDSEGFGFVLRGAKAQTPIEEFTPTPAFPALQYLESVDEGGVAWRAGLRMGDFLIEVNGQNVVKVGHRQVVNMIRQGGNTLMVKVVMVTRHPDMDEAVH
# T9: SIPA1L2, Q9P2F8
# T9 sequence (Q9P2F8 945-1036, limits assumed, looked up): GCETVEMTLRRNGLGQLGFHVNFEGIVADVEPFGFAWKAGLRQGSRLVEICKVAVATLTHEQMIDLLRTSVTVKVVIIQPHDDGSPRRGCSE
# T10: SNTG2, Q9NY99
# T10 sequence (Q9NY99 68-166, limits assumed, looked up): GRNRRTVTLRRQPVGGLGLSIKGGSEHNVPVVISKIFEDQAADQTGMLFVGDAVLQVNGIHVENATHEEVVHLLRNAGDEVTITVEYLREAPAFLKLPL
# T11: SYNJ2BP, P57105
# T11 sequence (P57105 8-110, limits assumed, looked up): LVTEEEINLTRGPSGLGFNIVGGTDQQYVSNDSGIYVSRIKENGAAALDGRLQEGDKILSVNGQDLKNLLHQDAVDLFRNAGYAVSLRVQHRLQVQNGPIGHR
# T12: TJP3_3, O95049
# T12 sequence (O95049 375-456, limits assumed, looked up): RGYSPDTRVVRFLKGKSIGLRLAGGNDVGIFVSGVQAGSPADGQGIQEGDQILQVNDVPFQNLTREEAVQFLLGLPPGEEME
# Target: AHNAK1, Q09666
# Test: holdup assay
# Parameters: key: below the threshold = too weak to quantify, mostly under pKd 3.1 to 4
# Conditions: plain residues with an end cap or a label only (N-terminal biotin on a linker: ttds)
# Sequence of AHNAK1, Q09666 (Q09666 4-100): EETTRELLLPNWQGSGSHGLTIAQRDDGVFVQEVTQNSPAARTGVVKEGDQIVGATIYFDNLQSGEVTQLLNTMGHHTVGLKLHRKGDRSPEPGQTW
row,Binder,pKd
1,"PKRPFVESNV [TANC2, Q9HCD6]",below the threshold

# Target: T1, ARHGAP21, Q5T5U3
# Test: holdup assay
# Parameters: key: below the threshold = too weak to quantify, mostly under pKd 3.1 to 4
# Conditions: plain residues with an end cap or a label only (N-terminal biotin on a linker: ttds)
row,Binder,pKd
1,"PKRPFVESNV [TANC2, Q9HCD6]",below the threshold

# Target: T2, DFNB31_1, Q9P202
# Test: holdup assay
# Parameters: key: below the threshold = too weak to quantify, mostly under pKd 3.1 to 4
# Conditions: plain residues with an end cap or a label only (N-terminal biotin on a linker: ttds)
row,Binder,pKd
1,"PKRPFVESNV [TANC2, Q9HCD6]",below the threshold

# Target: DLG2_2, Q15700
# Test: holdup assay
# Parameters: key: below the threshold = too weak to quantify, mostly under pKd 3.1 to 4
# Conditions: plain residues with an end cap or a label only (N-terminal biotin on a linker: ttds)
# Sequence of DLG2_2, Q15700 (Q15700 189-283): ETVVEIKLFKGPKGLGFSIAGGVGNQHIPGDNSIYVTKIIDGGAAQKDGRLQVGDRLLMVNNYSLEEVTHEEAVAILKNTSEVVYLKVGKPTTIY
row,Binder,pKd
1,"PKRPFVESNV [TANC2, Q9HCD6]",4.33

# Target: T3, DLG3_2, Q92796
# Test: holdup assay
# Parameters: key: below the threshold = too weak to quantify, mostly under pKd 3.1 to 4
# Conditions: plain residues with an end cap or a label only (N-terminal biotin on a linker: ttds)
row,Binder,pKd
1,"PKRPFVESNV [TANC2, Q9HCD6]",4.54

# Target: T4, DLG3_3, Q92796
# Test: holdup assay
# Parameters: key: below the threshold = too weak to quantify, mostly under pKd 3.1 to 4
# Conditions: plain residues with an end cap or a label only (N-terminal biotin on a linker: ttds)
row,Binder,pKd
1,"PKRPFVESNV [TANC2, Q9HCD6]",3.67

# Target: DLG4_2, P78352
# Test: holdup assay
# Parameters: key: below the threshold = too weak to quantify, mostly under pKd 3.1 to 4
# Conditions: plain residues with an end cap or a label only (N-terminal biotin on a linker: ttds)
# Sequence of DLG4_2, P78352 (P78352 155-259): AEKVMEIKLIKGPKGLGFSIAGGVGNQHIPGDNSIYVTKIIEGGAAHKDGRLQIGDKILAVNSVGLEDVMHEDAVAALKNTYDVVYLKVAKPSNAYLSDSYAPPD
row,Binder,pKd
1,"PKRPFVESNV [TANC2, Q9HCD6]",4.6

# Target: FRMPD3, Q5JV73
# Test: holdup assay
# Parameters: key: below the threshold = too weak to quantify, mostly under pKd 3.1 to 4
# Conditions: plain residues with an end cap or a label only (N-terminal biotin on a linker: ttds)
# Sequence of FRMPD3, Q5JV73 (Q5JV73 12-100): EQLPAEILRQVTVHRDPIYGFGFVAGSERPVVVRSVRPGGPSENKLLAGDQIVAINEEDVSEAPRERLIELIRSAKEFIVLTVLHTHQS
row,Binder,pKd
1,"PKRPFVESNV [TANC2, Q9HCD6]",below the threshold

# Target: GRASP, Q7Z6J2
# Test: holdup assay
# Parameters: key: below the threshold = too weak to quantify, mostly under pKd 3.1 to 4
# Conditions: plain residues with an end cap or a label only (N-terminal biotin on a linker: ttds)
# Sequence of GRASP, Q7Z6J2 (Q7Z6J2 96-193): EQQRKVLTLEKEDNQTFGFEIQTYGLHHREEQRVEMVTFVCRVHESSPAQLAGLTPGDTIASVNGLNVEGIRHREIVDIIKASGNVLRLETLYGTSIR
row,Binder,pKd
1,"PKRPFVESNV [TANC2, Q9HCD6]",below the threshold

# Target: Inadl_6, Q8NI35
# Test: holdup assay
# Parameters: key: below the threshold = too weak to quantify, mostly under pKd 3.1 to 4
# Conditions: plain residues with an end cap or a label only (N-terminal biotin on a linker: ttds)
# Sequence of Inadl_6, Q8NI35 (Q8NI35 1058-1167): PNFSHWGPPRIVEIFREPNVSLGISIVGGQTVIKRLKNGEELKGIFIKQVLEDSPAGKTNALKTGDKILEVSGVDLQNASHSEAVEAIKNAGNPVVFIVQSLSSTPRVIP
row,Binder,pKd
1,"PKRPFVESNV [TANC2, Q9HCD6]",below the threshold

# Target: LNX1_2, Q8TBB1
# Test: holdup assay
# Parameters: key: below the threshold = too weak to quantify, mostly under pKd 3.1 to 4
# Conditions: plain residues with an end cap or a label only (N-terminal biotin on a linker: ttds)
# Sequence of LNX1_2, Q8TBB1 (Q8TBB1 371-470): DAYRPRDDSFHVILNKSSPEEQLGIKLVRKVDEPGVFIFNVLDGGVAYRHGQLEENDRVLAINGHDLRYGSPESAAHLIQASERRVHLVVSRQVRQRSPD
row,Binder,pKd
1,"PKRPFVESNV [TANC2, Q9HCD6]",below the threshold

# Target: T5, LRRC7, Q96NW7
# Test: holdup assay
# Parameters: key: below the threshold = too weak to quantify, mostly under pKd 3.1 to 4
# Conditions: plain residues with an end cap or a label only (N-terminal biotin on a linker: ttds)
row,Binder,pKd
1,"PKRPFVESNV [TANC2, Q9HCD6]",4.05

# Target: T6, MPP2, Q14168
# Test: holdup assay
# Parameters: key: below the threshold = too weak to quantify, mostly under pKd 3.1 to 4
# Conditions: plain residues with an end cap or a label only (N-terminal biotin on a linker: ttds)
row,Binder,pKd
1,"PKRPFVESNV [TANC2, Q9HCD6]",below the threshold

# Target: NHERF2_2, Q15599
# Test: holdup assay
# Parameters: key: below the threshold = too weak to quantify, mostly under pKd 3.1 to 4
# Conditions: plain residues with an end cap or a label only (N-terminal biotin on a linker: ttds)
# Sequence of NHERF2_2, Q15599 (Q15599 142-238): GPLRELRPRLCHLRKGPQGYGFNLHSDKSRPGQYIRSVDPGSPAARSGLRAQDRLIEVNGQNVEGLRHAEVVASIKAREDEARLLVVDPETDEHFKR
row,Binder,pKd
1,"PKRPFVESNV [TANC2, Q9HCD6]",below the threshold

# Target: NHERF4_2, Q86UT5
# Test: holdup assay
# Parameters: key: below the threshold = too weak to quantify, mostly under pKd 3.1 to 4
# Conditions: plain residues with an end cap or a label only (N-terminal biotin on a linker: ttds)
# Sequence of NHERF4_2, Q86UT5 (Q86UT5 220-308): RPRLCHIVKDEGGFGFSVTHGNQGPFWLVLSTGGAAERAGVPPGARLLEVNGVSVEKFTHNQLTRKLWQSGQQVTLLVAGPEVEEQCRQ
row,Binder,pKd
1,"PKRPFVESNV [TANC2, Q9HCD6]",below the threshold

# Target: PDZRN4_1, Q6ZMN7
# Test: holdup assay
# Parameters: key: below the threshold = too weak to quantify, mostly under pKd 3.1 to 4
# Conditions: plain residues with an end cap or a label only (N-terminal biotin on a linker: ttds)
# Sequence of PDZRN4_1, Q6ZMN7 (Q6ZMN7 213-318): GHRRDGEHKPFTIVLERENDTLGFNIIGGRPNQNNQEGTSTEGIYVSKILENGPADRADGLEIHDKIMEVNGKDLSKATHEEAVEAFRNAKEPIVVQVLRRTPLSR
row,Binder,pKd
1,"PKRPFVESNV [TANC2, Q9HCD6]",below the threshold

# Target: T7, PTPN13_1, Q12923
# Test: holdup assay
# Parameters: key: below the threshold = too weak to quantify, mostly under pKd 3.1 to 4
# Conditions: plain residues with an end cap or a label only (N-terminal biotin on a linker: ttds)
row,Binder,pKd
1,"PKRPFVESNV [TANC2, Q9HCD6]",below the threshold

# Target: PTPN3, P26045
# Test: holdup assay
# Parameters: key: below the threshold = too weak to quantify, mostly under pKd 3.1 to 4
# Conditions: plain residues with an end cap or a label only (N-terminal biotin on a linker: ttds)
# Sequence of PTPN3, P26045 (P26045 505-587): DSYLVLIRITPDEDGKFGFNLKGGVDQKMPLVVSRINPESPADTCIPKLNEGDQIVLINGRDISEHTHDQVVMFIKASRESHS
row,Binder,pKd
1,"PKRPFVESNV [TANC2, Q9HCD6]",4.34

# Target: SCRIB_1, Q14160
# Test: holdup assay
# Parameters: key: below the threshold = too weak to quantify, mostly under pKd 3.1 to 4
# Conditions: plain residues with an end cap or a label only (N-terminal biotin on a linker: ttds)
# Sequence of SCRIB_1, Q14160 (Q14160 718-814): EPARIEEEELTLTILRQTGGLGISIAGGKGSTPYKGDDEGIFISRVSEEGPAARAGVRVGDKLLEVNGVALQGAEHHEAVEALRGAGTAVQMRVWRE
row,Binder,pKd
1,"PKRPFVESNV [TANC2, Q9HCD6]",4.75

# Target: SCRIB_2, Q14160
# Test: holdup assay
# Parameters: key: below the threshold = too weak to quantify, mostly under pKd 3.1 to 4
# Conditions: plain residues with an end cap or a label only (N-terminal biotin on a linker: ttds)
# Sequence of SCRIB_2, Q14160 (Q14160 857-960): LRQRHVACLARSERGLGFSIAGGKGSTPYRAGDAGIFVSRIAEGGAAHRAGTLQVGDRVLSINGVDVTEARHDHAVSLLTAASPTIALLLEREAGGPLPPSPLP
row,Binder,pKd
1,"PKRPFVESNV [TANC2, Q9HCD6]",4.59

# Target: SCRIB_3, Q14160
# Test: holdup assay
# Parameters: key: below the threshold = too weak to quantify, mostly under pKd 3.1 to 4
# Conditions: plain residues with an end cap or a label only (N-terminal biotin on a linker: ttds)
# Sequence of SCRIB_3, Q14160 (Q14160 999-1103): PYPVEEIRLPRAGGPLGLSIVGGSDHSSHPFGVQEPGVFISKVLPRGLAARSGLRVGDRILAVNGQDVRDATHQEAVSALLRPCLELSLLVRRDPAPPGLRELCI
row,Binder,pKd
1,"PKRPFVESNV [TANC2, Q9HCD6]",4.79

# Target: T8, SHANK1, Q9Y566
# Test: holdup assay
# Parameters: key: below the threshold = too weak to quantify, mostly under pKd 3.1 to 4
# Conditions: plain residues with an end cap or a label only (N-terminal biotin on a linker: ttds)
row,Binder,pKd
1,"PKRPFVESNV [TANC2, Q9HCD6]",below the threshold

# Target: T9, SIPA1L2, Q9P2F8
# Test: holdup assay
# Parameters: key: below the threshold = too weak to quantify, mostly under pKd 3.1 to 4
# Conditions: plain residues with an end cap or a label only (N-terminal biotin on a linker: ttds)
row,Binder,pKd
1,"PKRPFVESNV [TANC2, Q9HCD6]",below the threshold

# Target: T10, SNTG2, Q9NY99
# Test: holdup assay
# Parameters: key: below the threshold = too weak to quantify, mostly under pKd 3.1 to 4
# Conditions: plain residues with an end cap or a label only (N-terminal biotin on a linker: ttds)
row,Binder,pKd
1,"PKRPFVESNV [TANC2, Q9HCD6]",4.37

# Target: T11, SYNJ2BP, P57105
# Test: holdup assay
# Parameters: key: below the threshold = too weak to quantify, mostly under pKd 3.1 to 4
# Conditions: plain residues with an end cap or a label only (N-terminal biotin on a linker: ttds)
row,Binder,pKd
1,"PKRPFVESNV [TANC2, Q9HCD6]",5.08

# Target: T12, TJP3_3, O95049
# Test: holdup assay
# Parameters: key: below the threshold = too weak to quantify, mostly under pKd 3.1 to 4
# Conditions: plain residues with an end cap or a label only (N-terminal biotin on a linker: ttds)
row,Binder,pKd
1,"PKRPFVESNV [TANC2, Q9HCD6]",below the threshold
